Assay results from patent publication US20260258117A1 (ACADEMISCH ZIEKENHUIS LEIDEN H O D N LUMC, published 2026).

What was measured:
C4b-binding protein [1] = target: T1, C4b-binding protein (human, UniProt P04003 49-597; P20851 18-252); assay: bispecific ELISA
T1 construct: also called C4BP
T1 sequence (looked up) 1: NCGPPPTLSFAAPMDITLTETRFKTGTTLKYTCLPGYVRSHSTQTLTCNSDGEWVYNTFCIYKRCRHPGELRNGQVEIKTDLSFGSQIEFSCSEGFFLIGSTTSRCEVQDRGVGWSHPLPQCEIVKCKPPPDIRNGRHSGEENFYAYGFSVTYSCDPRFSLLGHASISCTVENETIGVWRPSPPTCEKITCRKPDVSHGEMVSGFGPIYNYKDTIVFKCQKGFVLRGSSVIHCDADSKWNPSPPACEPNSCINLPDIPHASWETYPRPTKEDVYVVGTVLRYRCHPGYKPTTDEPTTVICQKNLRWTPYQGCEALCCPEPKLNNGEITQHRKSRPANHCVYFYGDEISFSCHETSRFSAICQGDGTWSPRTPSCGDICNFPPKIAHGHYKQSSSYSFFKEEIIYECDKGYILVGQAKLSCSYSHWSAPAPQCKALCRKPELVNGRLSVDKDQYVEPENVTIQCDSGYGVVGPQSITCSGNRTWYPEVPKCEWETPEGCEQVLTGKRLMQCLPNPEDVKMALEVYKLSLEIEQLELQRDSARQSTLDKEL
T1 sequence (looked up) 2: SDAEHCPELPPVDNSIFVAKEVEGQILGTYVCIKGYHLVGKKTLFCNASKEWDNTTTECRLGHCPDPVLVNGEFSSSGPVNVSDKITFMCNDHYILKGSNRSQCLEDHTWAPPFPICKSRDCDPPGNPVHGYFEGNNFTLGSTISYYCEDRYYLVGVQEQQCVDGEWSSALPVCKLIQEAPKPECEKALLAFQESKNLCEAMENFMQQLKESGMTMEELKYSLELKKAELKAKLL
Method: (§1) BsAbs were tested for binding to both antigens in a bispecific ELISA. MaxiSorp plates (Thermo Scientific, Nunc, 430341) were coated with 50 μL/well BSA-DNP (10 μg/mL, Biosearch Technologies, D-5050-10, conjugation ration 13) in coating buffer (0.1 M Na₂CO₃/NaHCO₃PH 9.6) for 1 hour at 37° C. After every incubation, plates were washed three times with PBS/0.05% Tween 20. Plates were blocked with 100 μL/well PBS/1% BSA for 1 hour at 37° C. After washing, plates were incubated with 50 μL/well (bs) Abs diluted in PBS/0.05% Tween 20/1% BSA (PTB buffer) for 1 hour at 37° C. Next, 1 μg/mL FH (CompTech, A137) or C4BP (CompTech, A109) diluted in PTB buffer was added. FH was detected using goat anti-human FH (Quidel, A312) and HRP-labeled rabbit anti-goat Ig (Dako, P0449), and C4BP was detected using rabbit anti-human C4BP (kind gift from Anna M. Blom, Malmö, Sweden) and HRP-labeled goat anti-rabbit Ig (Dako, P0448), all diluted in PTB buffer. Plates were developed by incubating with 50 μL/well ABTS (Merck, A1888-5G) containing 1:2000 diluted H₂O₂ (Merck, 1072090250), and read at 415 nm using a microplate reader (BIO-RAD iMark). It was confirmed by ELISA that the bsAbs can bind to a specific target (e.g., DNP as a model antigen) as well as FH or C4BP, whereas the parental monospecific antibodies cannot (FIG. 1A).

[2] = target: T2, Complement Factor H protein (human, UniProt P08603 19-1231); assay: bispecific ELISA and complement activation assay on biotinylated BSA-DNP, FH detected
T2 construct: Plasma protein, bought purified or present in normal human serum; also called FH; CFH
T2 sequence (P08603 19-1231 limits assumed): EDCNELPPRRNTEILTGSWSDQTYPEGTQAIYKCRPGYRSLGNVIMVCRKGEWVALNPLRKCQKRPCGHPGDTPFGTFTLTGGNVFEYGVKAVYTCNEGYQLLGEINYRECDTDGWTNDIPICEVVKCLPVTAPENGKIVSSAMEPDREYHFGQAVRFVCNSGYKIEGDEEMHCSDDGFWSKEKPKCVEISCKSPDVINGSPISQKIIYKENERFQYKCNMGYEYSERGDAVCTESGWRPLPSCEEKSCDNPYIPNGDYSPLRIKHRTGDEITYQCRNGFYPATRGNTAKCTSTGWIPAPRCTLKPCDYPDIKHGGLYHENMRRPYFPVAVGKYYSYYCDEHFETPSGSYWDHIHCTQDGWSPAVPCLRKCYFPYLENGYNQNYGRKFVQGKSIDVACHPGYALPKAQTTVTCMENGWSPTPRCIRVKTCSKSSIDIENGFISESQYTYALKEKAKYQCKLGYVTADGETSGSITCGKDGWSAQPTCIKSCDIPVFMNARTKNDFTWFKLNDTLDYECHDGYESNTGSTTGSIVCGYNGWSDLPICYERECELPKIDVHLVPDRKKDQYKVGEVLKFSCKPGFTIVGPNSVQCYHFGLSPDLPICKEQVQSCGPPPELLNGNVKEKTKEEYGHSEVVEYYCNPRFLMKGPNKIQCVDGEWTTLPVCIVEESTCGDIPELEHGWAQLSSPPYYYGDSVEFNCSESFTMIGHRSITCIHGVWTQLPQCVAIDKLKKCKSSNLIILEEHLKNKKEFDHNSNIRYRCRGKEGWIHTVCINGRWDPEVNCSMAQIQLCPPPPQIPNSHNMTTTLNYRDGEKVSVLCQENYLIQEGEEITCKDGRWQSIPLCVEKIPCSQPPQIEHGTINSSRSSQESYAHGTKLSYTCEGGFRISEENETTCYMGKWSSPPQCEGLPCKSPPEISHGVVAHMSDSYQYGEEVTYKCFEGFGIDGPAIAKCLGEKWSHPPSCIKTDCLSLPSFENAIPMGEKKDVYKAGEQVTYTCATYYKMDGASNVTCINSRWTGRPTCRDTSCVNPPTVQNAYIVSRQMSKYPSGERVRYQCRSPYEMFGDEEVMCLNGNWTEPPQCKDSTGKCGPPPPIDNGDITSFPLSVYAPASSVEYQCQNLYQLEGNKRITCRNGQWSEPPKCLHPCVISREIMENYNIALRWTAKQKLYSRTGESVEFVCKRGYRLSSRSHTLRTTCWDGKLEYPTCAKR

[3] = target: T2, Complement Factor H protein; assay: bispecific ELISA: BSA-DNP coat, antibody, then FH, FH detected
Method: as §1

C4b-binding protein [4] = target: T1, C4b-binding protein; assay: bispecific ELISA: BSA-DNP coat, antibody, then C4BP, C4BP detected
Method: as §1

B1: Anti-C4BP F405L LALAPG, Anti-DNP K409R LALAPG (bispecific antibody, human IgG1, kappa, L234A L235A)
heavy 1: EVQLVESGGGLVKPGGSLKLSCAVSGFIFSDYYMYWVRQTPEKRLEWVATISDGGVYTYYPDSMKGRFTISRDNAKNNLYLQMSSLKSEDTAMYYCVRGDYYGNSLDYWGQGTSVTVSSASTKGPSVFPLAPSSKSTSGGTAALGCLVKDYFPEPVTVSWNSGALTSGVHTFPAVLQSSGLYSLSSVVTVPSSSLGTQTYICNVNHKPSNTKVDKRVEPKSCDKTHTCPPCPAPEAAGGPSVFLFPPKPKDTLMISRTPEVTCVVVDVSHEDPEVKFNWYVDGVEVHNAKTKPREEQYNSTYRVVSVLTVLHQDWLNGKEYKCKVSNKALGAPIEKTISKAKGQPREPQVYTLPPSREEMTKNQVSLTCLVKGFYPSDIAVEWESNGQPENNYKTTPPVLDSDGSFLLYSKLTVDKSRWQQGNVFSCSVMHEALHNHYTQKSLSLSPGK
light 1: DVVMTQTPLTLSITIGQPASISCKSSQSLLDGDGKTYLNWLLQRPGQSPKRLIYLVSKLDSGVPDRFTGSGSGTDFTLKISRVEAEDLGVYYCCQGTHFPWTFGRGTKLEIKRTVAAPSVFIFPPSDEQLKSGTASVVCLLNNFYPREAKVQWKVDNALQSGNSQESVTEQDSKDSTYSLSSTLTLSKADYEKHKVYACEVTHQGLSSPVTKSFNRGEC
heavy 2: DVRLQESGPGLVKPSQSLSLTCSVTGYSITNSYYWNWIRQFPGNKLEWMVYIGYDGSNNYNPSLKNRISITRDTSKNQFFLKLNSVTTEDTATYYCARATYYGNYRGFAYWGQGTLVTVSAASTKGPSVFPLAPSSKSTSGGTAALGCLVKDYFPEPVTVSWNSGALTSGVHTFPAVLQSSGLYSLSSVVTVPSSSLGTQTYICNVNHKPSNTKVDKRVEPKSCDKTHTCPPCPAPEAAGGPSVFLFPPKPKDTLMISRTPEVTCVVVDVSHEDPEVKFNWYVDGVEVHNAKTKPREEQYNSTYRVVSVLTVLHQDWLNGKEYKCKVSNKALGAPIEKTISKAKGQPREPQVYTLPPSREEMTKNQVSLTCLVKGFYPSDIAVEWESNGQPENNYKTTPPVLDSDGSFFLYSRLTVDKSRWQQGNVFSCSVMHEALHNHYTQKSLSLSPGK
light 2: DIRMTQTTSSLSASLGDRVTISCRASQDISNYLNWYQQKPDGTVKLLIYYTSRLHSGVPSRFSGSGSGTDYSLTISNLEQEDIATYFCQQGNTLPWTFGGGTKLEIKRTVAAPSVFIFPPSDEQLKSGTASVVCLLNNFYPREAKVQWKVDNALQSGNSQESVTEQDSKDSTYSLSSTLTLSKADYEKHKVYACEVTHQGLSSPVTKSFNRGEC
notes: Made by controlled Fab-arm exchange; also called anti-C4BP x anti-DNP
B1: binds (C4b-binding protein [1]).

B2: Anti-FH F405L LALAPG, Anti-biotin K409R LALAPG (bispecific antibody, human IgG1, kappa, L234A L235A)
heavy 1: EVQLQQSGPELVKPGASVKISCKASGYSFTGYFIHWVKQSHVKSLEWFGRINPYNGATDYNQNFKDKAILTIDESSSTAYMEIHSLTSDDSAVYYCARGLFLDYWGQGTTLTVSSASTKGPSVFPLAPSSKSTSGGTAALGCLVKDYFPEPVTVSWNSGALTSGVHTFPAVLQSSGLYSLSSVVTVPSSSLGTQTYICNVNHKPSNTKVDKRVEPKSCDKTHTCPPCPAPEAAGGPSVFLFPPKPKDTLMISRTPEVTCVVVDVSHEDPEVKFNWYVDGVEVHNAKTKPREEQYNSTYRVVSVLTVLHQDWLNGKEYKCKVSNKALGAPIEKTISKAKGQPREPQVYTLPPSREEMTKNQVSLTCLVKGFYPSDIAVEWESNGQPENNYKTTPPVLDSDGSFLLYSKLTVDKSRWQQGNVFSCSVMHEALHNHYTQKSLSLSPGK
light 1: DILMTQSPSSMSVSLGDTVSITCHASQGITSNIGWLQQKPGKSFKGLIYHGTNLEDGVPSRFSGSGSGADYSLTISSLESEDFADYYCVQYAQFPWTFGGGTKLEIKRTVAAPSVFIFPPSDEQLKSGTASVVCLLNNFYPREAKVQWKVDNALQSGNSQESVTEQDSKDSTYSLSSTLTLSKADYEKHKVYACEVTHQGLSSPVTKSFNRGEC
heavy 2: QVKLQESGPGLVAPSQSLSITCTVSGFSLTAYGVDWVRQPPGKGLEWLGVIWGGGRTNYNSGLMSRLSIRKDNSKSQVFLTMNSLQTDDTAKYYCVKHTNWDGGFAYWGQGTTVTVSSASTKGPSVFPLAPSSKSTSGGTAALGCLVKDYFPEPVTVSWNSGALTSGVHTFPAVLQSSGLYSLSSVVTVPSSSLGTQTYICNVNHKPSNTKVDKRVEPKSCDKTHTCPPCPAPEAAGGPSVFLFPPKPKDTLMISRTPEVTCVVVDVSHEDPEVKFNWYVDGVEVHNAKTKPREEQYNSTYRVVSVLTVLHQDWLNGKEYKCKVSNKALGAPIEKTISKAKGQPREPQVYTLPPSREEMTKNQVSLTCLVKGFYPSDIAVEWESNGQPENNYKTTPPVLDSDGSFFLYSRLTVDKSRWQQGNVFSCSVMHEALHNHYTQKSLSLSPGK
light 2: DVVMTQSPLSLPVSLGDQASISCRSGQGLVYSNGDTYLHWYLQKPGQSPKLLIYKVSNRFSGVPDRFSGSGSGTDFTLKISRVEAEDLGVYFCSQSTHFPFTFGSGTKLEIKRTVAAPSVFIFPPSDEQLKSGTASVVCLLNNFYPREAKVQWKVDNALQSGNSQESVTEQDSKDSTYSLSSTLTLSKADYEKHKVYACEVTHQGLSSPVTKSFNRGEC
notes: Made by controlled Fab-arm exchange; also called anti-FH x anti-biotin
B2: binds [2].

B3: Anti-DNP K409R LALAPG (antibody, human IgG1, kappa, L234A L235A, V domains shown)
VH: DVRLQESGPGLVKPSQSLSLTCSVTGYSITNSYYWNWIRQFPGNKLEWMVYIGYDGSNNYNPSLKNRISITRDTSKNQFFLKLNSVTTEDTATYYCARATYYGNYRGFAYWGQGTLVTVSA
VL: DIRMTQTTSSLSASLGDRVTISCRASQDISNYLNWYQQKPDGTVKLLIYYTSRLHSGVPSRFSGSGSGTDYSLTISNLEQEDIATYFCQQGNTLPWTFGGGTKLEIKR
notes: also called anti-DNP parental Ab; parental monospecific antibody
B3: no binding (tested: 1 µg/mL FH) [3]; no binding (tested: 1 µg/mL C4BP) (C4b-binding protein [4]).
